According to US20210147877A1:

Experiments:
Assay in all cases: cell-based or functional assay
[1] = target: AAV8 vector (parental AAV8 capsid) (AAV serotype 8)
[2] = target: haploid virus AAV2/8 3:1 (AAV serotype 2; AAV serotype 8) (UniProt P03135)
[3] = target: haploid virus AAV2/8 1:1 (AAV serotype 2; AAV serotype 8) (UniProt P03135)
[4] = target: haploid virus AAV2/8 1:3 (AAV serotype 2; AAV serotype 8) (UniProt P03135)
[5] = target: AAV2 vector (parental AAV2 capsid) (AAV serotype 2) (UniProt P03135)

monoclonal antibody ADK8
Neutralization antibody titer [1]: 1024 titer | Neutralization antibody titer [2]: 512 titer | Neutralization antibody titer [3]: 512 titer | Neutralization antibody titer [4]: 1024 titer | Neutralization antibody titer [5]: < 2 titer

monoclonal antibody A20
Neutralization antibody titer [1]: < 2 titer | Neutralization antibody titer [2]: 2048 titer | Neutralization antibody titer [3]: 32 titer | Neutralization antibody titer [4]: < 2 titer | Neutralization antibody titer [5]: 512 titer
